Test results reported in article PMC5899921 (Cytoskeleton (Hoboken, N.J.), 2017).

Assays:
electron microscopy = target: the molecule itself; test: electron microscopy
[1] = target: the molecule itself; test: fluorescence correlation spectroscopy with photon counting histogram analysis

B1: Myo2p, heavy chain of fission yeast myosin-II Myo2, in purified "Phosphorylated Myo2" (natural protein, S. pombe, UniProt Q9USI6 1-1526, looked up)
chain: MTEVISNKITAKDGATSLKDIDDKRWVWISDPETAFTKAWIKEDLPDKKYVVRYNNSRDEKIVGEDEIDPVNPAKFDRVNDMAELTYLNEPAVTYNLEQRYLSDQIYTYSGLFLVAVNPYCGLPIYTKDIIQLYKDKTQERKLPHVFAIADLAYNNLLENKENQSILVTGESGAGKTENTKRIIQYLAAIASSTTVGSSQVEEQIIKTNPVLESFGNARTVRNNNSSRFGKFIKVEFSLSGEISNAAIEWYLLEKSRVVHQNEFERNYHVFYQLLSGADTALKNKLLLTDNCNDYRYLKDSVHIIDGVDDKEEFKTLLAAFKTLGFDDKENFDLFNILSIILHMGNIDVGADRSGIARLLNPDEIDKLCHLLGVSPELFSQNLVRPRIKAGHEWVISARSQTQVISSIEALAKAIYERNFGWLVKRLNTSLNHSNAQSYFIGILDIAGFEIFEKNSFEQLCINYTNEKLQQFFNHHMFVLEQEEYMKEEIVWDFIDFGHDLQPTIDLIEKANPIGILSCLDEECVMPKATDATFTSKLDALWRNKSLKYKPFKFADQGFILTHYAADVPYSTEGWLEKNTDPLNENVAKLLAQSTNKHVATLFSDYQETETKTVRGRTKKGLFRTVAQRHKEQLNQLMNQFNSTQPHFIRCIVPNEEKKMHTFNRPLVLGQLRCNGVLEGIRITRAGFPNRLPFNDFRVRYEIMAHLPTGTYVESRRASVMILEELKIDEASYRIGVSKIFFKAGVLAELEERRVATLQRLMTMLQTRIRGFLQRKIFQKRLKDIQAIKLLQANLQVYNEFRTFPWAKLFFNLRPLLSSTQNDKQLKKRDAEIIELKYELKKQQNSKSEVERDLVETNNSLTAVENLLTTERAIALDKEEILRRTQERLANIEDSFSETKQQNENLQRESASLKQINNELESELLEKTSKVETLLSEQNELKEKLSLEEKDLLDTKGELESLRENNATVLSEKAEFNEQCKSLQETIVTKDAELDKLTKYISDYKTEIQEMRLTNQKMNEKSIQQEGSLSESLKRVKKLERENSTLISDVSILKQQKEELSVLKGVQELTINNLEEKVNYLEADVKQLPKLKKELESLNDKDQLYQLQATKNKELEAKVKECLNNIKSLTKELENKEEKCQNLSDASLKYIELQEIHENLLLKVSDLENYKKKYEGLQLDLEGLKDVDTNFQELSKKHRDLTFNHESLLRQSASYKEKLSLASSENKDLSNKVSSLTKQVNELSPKASKVPELERKITNLMHEYSQLGKTFEDEKRKALIASRDNEELRSLKSELESKRKLEVEYQKVLEEVKTTRSLRSEVTLLRNKVADHESIRSKLSEVEMKLVDTRKELNSALDSCKKREAEIHRLKEHRPSGKENNIPAVKTTEPVLKNIPQRKTIFDLQQRNANQALYENLKRDYDRLNLEKHNLEKQVNELKGAEVSPQPTGQSLQHVNLAHAIELKALKDQINSEKAKMFSVQVQYEKREQELQKRIASLEKVNKDSLIDVRALRDRIASLEDELRAA
modifications: phosphoserine at 1444 (largely phosphorylated, LC/MS/MS)
stoichiometry N (electron microscopy): 2

B2: mEGFP-Myo2 (Myo2 heavy chain with an N-terminal mEGFP tag) (natural protein, S. pombe, UniProt Q9USI6 1-1526, looked up)
chain: MTEVISNKITAKDGATSLKDIDDKRWVWISDPETAFTKAWIKEDLPDKKYVVRYNNSRDEKIVGEDEIDPVNPAKFDRVNDMAELTYLNEPAVTYNLEQRYLSDQIYTYSGLFLVAVNPYCGLPIYTKDIIQLYKDKTQERKLPHVFAIADLAYNNLLENKENQSILVTGESGAGKTENTKRIIQYLAAIASSTTVGSSQVEEQIIKTNPVLESFGNARTVRNNNSSRFGKFIKVEFSLSGEISNAAIEWYLLEKSRVVHQNEFERNYHVFYQLLSGADTALKNKLLLTDNCNDYRYLKDSVHIIDGVDDKEEFKTLLAAFKTLGFDDKENFDLFNILSIILHMGNIDVGADRSGIARLLNPDEIDKLCHLLGVSPELFSQNLVRPRIKAGHEWVISARSQTQVISSIEALAKAIYERNFGWLVKRLNTSLNHSNAQSYFIGILDIAGFEIFEKNSFEQLCINYTNEKLQQFFNHHMFVLEQEEYMKEEIVWDFIDFGHDLQPTIDLIEKANPIGILSCLDEECVMPKATDATFTSKLDALWRNKSLKYKPFKFADQGFILTHYAADVPYSTEGWLEKNTDPLNENVAKLLAQSTNKHVATLFSDYQETETKTVRGRTKKGLFRTVAQRHKEQLNQLMNQFNSTQPHFIRCIVPNEEKKMHTFNRPLVLGQLRCNGVLEGIRITRAGFPNRLPFNDFRVRYEIMAHLPTGTYVESRRASVMILEELKIDEASYRIGVSKIFFKAGVLAELEERRVATLQRLMTMLQTRIRGFLQRKIFQKRLKDIQAIKLLQANLQVYNEFRTFPWAKLFFNLRPLLSSTQNDKQLKKRDAEIIELKYELKKQQNSKSEVERDLVETNNSLTAVENLLTTERAIALDKEEILRRTQERLANIEDSFSETKQQNENLQRESASLKQINNELESELLEKTSKVETLLSEQNELKEKLSLEEKDLLDTKGELESLRENNATVLSEKAEFNEQCKSLQETIVTKDAELDKLTKYISDYKTEIQEMRLTNQKMNEKSIQQEGSLSESLKRVKKLERENSTLISDVSILKQQKEELSVLKGVQELTINNLEEKVNYLEADVKQLPKLKKELESLNDKDQLYQLQATKNKELEAKVKECLNNIKSLTKELENKEEKCQNLSDASLKYIELQEIHENLLLKVSDLENYKKKYEGLQLDLEGLKDVDTNFQELSKKHRDLTFNHESLLRQSASYKEKLSLASSENKDLSNKVSSLTKQVNELSPKASKVPELERKITNLMHEYSQLGKTFEDEKRKALIASRDNEELRSLKSELESKRKLEVEYQKVLEEVKTTRSLRSEVTLLRNKVADHESIRSKLSEVEMKLVDTRKELNSALDSCKKREAEIHRLKEHRPSGKENNIPAVKTTEPVLKNIPQRKTIFDLQQRNANQALYENLKRDYDRLNLEKHNLEKQVNELKGAEVSPQPTGQSLQHVNLAHAIELKALKDQINSEKAKMFSVQVQYEKREQELQKRIASLEKVNKDSLIDVRALRDRIASLEDELRAA
stoichiometry N [1]: 2
